According to patent US20230235058A1 (OXFORD UNIVERSITY INNOVATION, published 2023):
Residue numbers refer to the chain shown, from its start. In names and notes the source's numbering stands.

B1: 27G9 (antibody, IgG1, V domains shown)
VH: EVQLQQSVAELVRPGASVKLSCTASGFNIKNTYMHWVKQRPEQGLEWIGRIDPANGNTKYAPKFQGKATITADTSSNTAYLQLSSLTSEDTAIYYCALTYYGSSQYYFDYWGQGTTLTVSS
VL: not shown
notes: mIgG1
B2: 26F3 (antibody, IgG1, V domains shown)
VH: B1 VH with H35Y, T99L, Q105Y, Y106D
VL: not shown
notes: mIgG1
B3: humanised 2.8.6 hIgG1 D265A G236D S267E A330R (antibody)
heavy: QVTLKESGPALVKPTQTLTLTCTVSGFSLTTYGVHWIRQPPGKALEWLGVMWPGGRTSYNPSLKSRLTITKDNSKSQVVLTMTNMDPVDTATYYCVRGDYEYDYYAMDYWGQGTLVTVSSASTKGPSVFPLAPSSKSTSGGTAALGCLVKDYFPEPVTVSWNSGALTSGVHTFPAVLQSSGLYSLSSVVTVPSSSLGTQTYICNVNHKPSNTKVDKKVEPKSCDKTHTCPPCPAPELLDGPSVFLFPPKPKDTLMISRTPEVTCVVVAVEHEDPEVKFNWYVDGVEVHNAKTKPREEQYNSTYRVVSVLTVLHQDWLNGKEYKCKVSNKALPRPIEKTISKAKGQPREPQVYTLPPSREEMTKNQVSLTCLVKGFYPSDIAVEWESNGQPENNYKTTPPVLDSDGSFFLYSKLTVDKSRWQQGNVFSCSVMHEALHNHYTQKSLSLSPGK
light: EIVLTQSPATLSLSPGERATLSCRASSSVSYMHWYQQKPGQAPRPLIYATSNRATGIPARFSGSGSGTDYTLTISSLEPEDFAVYYCHQWSSNPYTFGQGTKLEIKRTVAAPSVFIFPPSDEQLKSGTASVVCLLNNFYPREAKVQWKVDNALQSGNSQESVTEQDSKDSTYSLSSTLTLSKADYEKHKVYACEVTHQGLSSPVTKSFNRGEC
notes: Fc variant with the variable domains of humanised 2.8.6; copies: 2 + 2
B4: humanised 2.8.6 hIgG1 D265A S267E A330R (antibody)
heavy: B3 heavy with D239G
light: B3 light
notes: as for B3
B5: hHVEM-mFc fusion protein (human HVEM extracellular domain fused to mouse IgG1 Fc) (Fc fusion)
chain: LPSCKEDEYPVGSECCPKCSPGYRVKEACGELTGTVCEPCPPGTYIAHLNGLSKCLQCQMCDPAMGLRASRNCSRTENAVCGCSPGHFCIVQDGDHCAACRAYATSSPGQRVQKGGTESQDTLCQNCPPGTFSPNGTLEECQHQTKCSWLVTKAGAGTSSSHLVPRGSGSKPSISTVPEVSSVFIFPPKPKDVLTITLTPKVTCVVVDISKDDPEVQFSWFVDDVEVHTAQTQPREEQFNSTFRSVSELPIMHQDWLNGKEFKCRVNSAAFPAPIEKTISKTKGRPKAPQVYTIPPPKEQMAKDKVSLTCMITDFFPEDITVEWQWNGQPAENYKNTQPIMDTDGSYFVYSKLNVQKSNWEAGNTFTCSVLHEGLHNHHTEKSLSHSPGKHHHHHH
B6: 6.2 (antibody, IgG1, V domains shown)
VH: EVKLVESGGGLVKPGGSLKLSCAASGFTLSSYGMSWVRQIPEKRLEWVASIRSDGNTYYPDSVKGRFIISRDNARNILYLQMSSLRSEDTAMYYCTRGGYYGSSPYYWGQGTTLTVSS
VL: DIVMSQSPSSLPVSVGEKISMTCKSSQSLLYSSNQKNYLAWYQQKPGQSPKLLIYWASTRDSGVPDRFIGSGSGTDFTLTINSVKAEDLAVYYCQQYYNYLTFGAGTKLELK
notes: mIgG1; also called clone 6.2; parent clone 6.2
B7: humanised 2.8.6 hIgG1 delta ab (antibody)
chain 1: QVTLKESGPALVKPTQTLTLTCTVSGFSLTTYGVHWIRQPPGKALEWLGVMWPGGRTSYNPSLKSRLTITKDNSKSQVVLTMTNMDPVDTATYYCVRGDYEYDYYAMDYWGQGTLVTVSSASTKGPSVFPLAPSSKSTSGGTAALGCLVKDYFPEPVTVSWNSGALTSGVHTFPAVLQSSGLYSLSSVVTVPSSSLGTQTYICNVNHKPSNTKVDKKVEPKSCDKTHTCPPCPAPPVAGPSVFLFPPKPKDTLMISRTPEVTCVVVDVSHEDPEVKFNWYVDGVEVHNAKTKPREEQYNSTYRVVSVLTVLHQDWLNGKEYKCKVSNKGLPSSIEKTISKAKGQPREPQVYTLPPSRDELTKNQVSLTCLVKGFYPSDIAVEWESNGQPENNYKTTPPVLDSDGSFFLYSKLTVDKSRWQQGNVFSCSVMHEALHNHYTQKSLSLSP
chain 2: B3 light
B8: humanised 2.8.6 hIgG1 delta ac (antibody)
chain 1: QVTLKESGPALVKPTQTLTLTCTVSGFSLTTYGVHWIRQPPGKALEWLGVMWPGGRTSYNPSLKSRLTITKDNSKSQVVLTMTNMDPVDTATYYCVRGDYEYDYYAMDYWGQGTLVTVSSASTKGPSVFPLAPSSKSTSGGTAALGCLVKDYFPEPVTVSWNSGALTSGVHTFPAVLQSSGLYSLSSVVTVPSSSLGTQTYICNVNHKPSNTKVDKKVEPKSCDKTHTCPPCPAPPVAGGPSVFLFPPKPKDTLMISRTPEVTCVVVDVSHEDPEVKFNWYVDGVEVHNAKTKPREEQYNSTYRVVSVLTVLHQDWLNGKEYKCKVSNKGLPSSIEKTISKAKGQPREPQVYTLPPSRDELTKNQVSLTCLVKGFYPSDIAVEWESNGQPENNYKTTPPVLDSDGSFFLYSKLTVDKSRWQQGNVFSCSVMHEALHNHYTQKSLSLSP
chain 2: B3 light

How the values were obtained:
[1] = target: T1, full length human BTLA expressed on cells (human, UniProt Q7Z6A9 31-289); test: cell-based or functional assay
[2] = target: chimeric BTLA of humanised-BTLA mice (human extracellular region, murine transmembrane and signaling … (human; mouse, UniProt Q7TSA3 184-306, limits assumed); test: cell-based or functional assay
Chain of chimeric BTLA of humanised-BTLA mice (human extracellular region, murine transmembrane and signaling … (Q7TSA3 other isoform, or with tags, fused parts or gaps mutant limits assumed): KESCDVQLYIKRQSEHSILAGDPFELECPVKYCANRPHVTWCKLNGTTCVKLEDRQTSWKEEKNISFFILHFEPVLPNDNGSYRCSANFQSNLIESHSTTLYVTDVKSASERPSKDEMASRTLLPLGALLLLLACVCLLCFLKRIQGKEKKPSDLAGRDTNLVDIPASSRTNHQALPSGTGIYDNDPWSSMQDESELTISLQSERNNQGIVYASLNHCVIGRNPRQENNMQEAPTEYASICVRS

[3] = target: T2, soluble cynomolgus macaque BTLA extracellular domain (BTLA K31-R151) (cynomolgus macaque); test: SPR 37C, mAb captured, BTLA ECD analyte;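 also: Anti-BTLA mouse antibodies captured on a sensor chip via polyclonal anti-mouse IgG, isotype control antibody in reference channel, rates fitted after reference and blank subtraction to derive Kd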
T2 construct: also called cynomolgus BTLA; cyno BTLA
T2 chain: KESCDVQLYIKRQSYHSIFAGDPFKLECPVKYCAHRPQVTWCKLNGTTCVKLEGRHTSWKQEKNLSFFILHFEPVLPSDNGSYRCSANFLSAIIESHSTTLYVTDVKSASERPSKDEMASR
Description: (§1) Mouse antibody capture kit (GE Healthcare) was used to coat a Series S CMS Sensor Chip (GE Healthcare) with polyclonal anti-mouse IgG. Anti-BTLA antibody was then captured onto the biosensor surface and a negative control antibody (clone Mopc21; Biolegend) captured in the reference channel. […] Association and dissociation rates were fitted using BiaEvaluation Software (GE Healthcare) after reference and blank subtractions, and dissociation constants were calculated (FIG. 1b).

[4] = target: T3, monomeric soluble human BTLA extracellular domain (BTLA K31-R151) (human, UniProt Q7Z6A9 31-151); test: SPR 37C, mAb captured, BTLA ECD analyte;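 also: Anti-BTLA mouse antibodies captured on a sensor chip via polyclonal anti-mouse IgG, isotype control antibody in reference channel, rates fitted after reference and blank subtraction to derive Kd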
T3 construct: also called hBTLA; monomeric BTLA
Description: as §1

[5] = target: T4, human FcγR1A (human, UniProt P12314 16-288, biotinylated); test: SPR 37C, kinetic
T4 construct: bought; also called CD64A
T4 sequence (P12314 16-288): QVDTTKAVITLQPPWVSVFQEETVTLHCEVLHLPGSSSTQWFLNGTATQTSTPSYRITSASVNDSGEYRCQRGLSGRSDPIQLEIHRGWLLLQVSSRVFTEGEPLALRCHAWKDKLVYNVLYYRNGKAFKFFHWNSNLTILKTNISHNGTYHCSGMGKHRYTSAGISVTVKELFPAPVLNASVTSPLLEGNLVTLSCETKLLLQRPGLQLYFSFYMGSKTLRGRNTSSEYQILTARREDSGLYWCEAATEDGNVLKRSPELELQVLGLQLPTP
Description: For the high affinity FcR interactions (FcγR1A, and also FcRn assessed at pH6.0) the binding was assessed in a kinetic analysis with antibody as analyte. […] Reference flow cell 1 was left empty in all channels. Purified antibody was then injected at a single concentration and on/off rates calculated by curve fitting on BiaEvaluation software.

[6] = target: T5, human FcγR3A 158F (human, UniProt P08637 17-208); test: SPR 37C, steady state;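 also: fc variants captured on chip-bound human BTLA ectodomain, recombinant FcγR ectodomains injected as analyte at varied concentrations, double-referenced equilibrium binding fitted to Langmuir model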
T5 construct: extracellular domain
T5 sequence (P08637 17-208): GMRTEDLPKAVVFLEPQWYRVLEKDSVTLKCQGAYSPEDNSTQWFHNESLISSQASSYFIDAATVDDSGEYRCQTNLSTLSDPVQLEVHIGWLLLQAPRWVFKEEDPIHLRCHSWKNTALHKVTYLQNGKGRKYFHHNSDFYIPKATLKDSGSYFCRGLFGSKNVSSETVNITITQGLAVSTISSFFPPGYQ

[7] = target: T6, human FcγR2A 131H (human, UniProt P12318 34-217); test: SPR 37C, steady state;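 also: fc variants captured on chip-bound human BTLA ectodomain, recombinant FcγR ectodomains injected as analyte at varied concentrations, double-referenced equilibrium binding fitted to Langmuir model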
T6 construct: extracellular domain
T6 sequence (looked up): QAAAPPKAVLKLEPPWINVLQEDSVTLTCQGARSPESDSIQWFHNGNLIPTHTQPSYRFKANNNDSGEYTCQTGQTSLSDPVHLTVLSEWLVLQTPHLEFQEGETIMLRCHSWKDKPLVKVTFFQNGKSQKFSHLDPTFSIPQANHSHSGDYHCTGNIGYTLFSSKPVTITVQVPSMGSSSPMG

[8] = target: T7, human FcγR2B (human, UniProt P31994 43-217); test: SPR 37C, steady state;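 also: fc variants captured on chip-bound human BTLA ectodomain, recombinant FcγR ectodomains injected as analyte at varied concentrations, double-referenced equilibrium binding fitted to Langmuir model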
T7 construct: extracellular domain; also called hFcγR2B; CD32B
T7 sequence (looked up): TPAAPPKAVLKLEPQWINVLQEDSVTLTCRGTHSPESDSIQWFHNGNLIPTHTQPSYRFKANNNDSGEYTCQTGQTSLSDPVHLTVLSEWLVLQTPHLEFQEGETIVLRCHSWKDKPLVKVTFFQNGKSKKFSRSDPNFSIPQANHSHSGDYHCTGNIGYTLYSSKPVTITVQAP

[9] = target: T8, human FcγR3A 158V (human, UniProt P08637 17-208); test: SPR 37C, steady state;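 also: fc variants captured on chip-bound human BTLA ectodomain, recombinant FcγR ectodomains injected as analyte at varied concentrations, double-referenced equilibrium binding fitted to Langmuir model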
T8 construct: extracellular domain
T8 sequence (P08637 17-208 F176V): as the sequence (P08637 17-208) above, with F160V counted along it

[10] = target: T9, human FcγR3B (human, UniProt O75015 17-200, limits assumed); test: SPR 37C, steady state
T9 construct: extracellular domain; also called CD16B
T9 sequence (O75015 17-200 limits assumed): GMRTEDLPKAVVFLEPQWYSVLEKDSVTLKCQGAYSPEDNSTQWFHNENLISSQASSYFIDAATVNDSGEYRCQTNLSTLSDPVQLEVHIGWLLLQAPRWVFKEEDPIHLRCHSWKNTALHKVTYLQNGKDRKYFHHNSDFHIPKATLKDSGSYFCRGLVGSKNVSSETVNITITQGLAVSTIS

[11] = target: T10, human FcγR2A 131R (human, UniProt P12318 34-217); test: SPR 37C, steady state
T10 construct: extracellular domain
T10 sequence (looked up): T6 sequence (looked up) with H134R

[12] = target: T1, full length human BTLA expressed on …; test: cell-based or functional assay; remark: listed apart in the source
[13] = target: T11, human FcRn (human, UniProt P55899 24-297; P61769 21-119, limits assumed, biotinylated); test: SPR, pH6.0
T11 construct: bought; also called FcRn pH6
Description: For the high affinity FcR interactions (FcγR1A, and also FcRn assessed at pH6.0) the binding was assessed in a kinetic analysis with antibody as analyte. […] Reference flow cell 1 was left empty in all channels. Purified antibody was then injected at a single concentration and on/off rates calculated by curve fitting on BiaEvaluation software. […] IgG Fc has two binding sites for FcRn so this assessment performed with FcRn immobilised at high density provides an avidity estimate for the interaction rather than a true KD.
For AntiCD3/CD28 (CD4 T cell proliferation) repeat 1 in this document: test concentration or dose not given here.
For AntiCD3/CD28 (CD4 T cell proliferation) repeat 2 in this document: test concentration or dose not given here.
For AntiCD3/CD28 (CD69+ CD4 T cells) repeat 1 in this document: test concentration or dose not given here.
For T cell reporter (NFκB signaling) in this document: test concentration or dose not given here.

Row | T cell reporter (NFκB signaling) [1] [% inhibition] | AntiCD3/CD28 (CD4 T cell proliferation) repeat 1 [2] [% inhibition] | AntiCD3/CD28 (CD4 T cell proliferation) repeat 2 [2] [% inhibition] | AntiCD3/CD28 (CD69+ CD4 T cells) repeat 1 [2] [% inhibition] | AntiCD3/CD28 (CD69+ CD4 T cells) repeat 2 [2] [% inhibition] | MLR (CD4 T cell proliferation) repeat 1 [2] [% inhibition] | MLR (CD4 T cell proliferation) repeat 2 [2] [% inhibition] | Kd [3] [µM] | Kd [4] [µM] | koff [4] [s⁻¹] | kon [4] [M⁻¹ s⁻¹] | Kd [8] [µM] | Kd [11] [µM] | Kd [7] [µM] | further results | Binder
1 | 24 | 10 | 13 | 24 | 22 | 9 | 8 | 0.654 | 0.437 | 0.0838 | 192000 | – | – | – | – | B1
2 | 20 | 4 | 0 | 19 | 17 | 9 | -5 | 0.81 | 2.2 | 2.02 | 921000 | – | – | – | – | B2
3 | – | – | – | – | – | – | – | – | – | – | – | 104 | 54.4 | – | binding result [5]: no binding; binding result [6]: no binding; binding result [7]: no binding; binding result [9]: no binding; binding result [10]: no binding | B3
4 | – | – | – | – | – | – | – | – | – | – | – | 80.1 | 22 | 113 | binding result [6]: no binding; binding result [9]: no binding; binding result [10]: no binding | B4
5 | – | – | – | – | – | – | – | – | – | – | – | – | – | – | inhibition of NFkB signal, IC50 [12]: 0.0096 µM; maximal inhibition of NFkB signal [12]: 27% | B5
6 | 26 | 19 | 21 | 53 | 61 | 31 | 35 | 0.00971 | 0.0017 | 0.00107 | 630000 | – | – | – | – | B6
7 | – | – | – | – | – | – | – | – | – | – | – | 82.5 | 9.56 | 4.86 | avidity (FcRn pH6) [13]: 14.8 nM; Kd [6]: 722 µM; Kd [9]: 494 µM; Kd [10]: 2820 µM | B7
8 | – | – | – | – | – | – | – | – | – | – | – | 131 | 79.3 | 82.2 | Kd [5]: 2.85 µM; avidity (FcRn pH6) [13]: 11.9 nM; Kd [6]: 344 µM; Kd [9]: 96.4 µM | B8
